# Key:
# [1] = target: human MSLN full-length protein, recombinant, on CHO-K1 or HEK293T cells (human) (UniProt Q13421); assay: competitive FACS on CHO-K1-human MSLN-2C8 cells vs Biotin-Tab142; competitor at 8 nM
# [2] = target: human MSLN full-length protein, recombinant, on CHO-K1 or HEK293T cells (human) (UniProt Q13421); assay: competitive FACS on CHO-K1-human MSLN-2C8 cells vs Biotin-Tab131; competitor at 40 nM
# [3] = target: human MSLN protein endogenously expressed on tumor cells (Hela, OVCAR3) (human) (UniProt Q13421); assay: FACS, OVCAR3 cells, antibody 0.8 nM
# Sequence of human MSLN protein endogenously expressed on tumor cells (Hela, OVCAR3) (human) (Q13421 other isoform, or with tags, fused parts or gaps): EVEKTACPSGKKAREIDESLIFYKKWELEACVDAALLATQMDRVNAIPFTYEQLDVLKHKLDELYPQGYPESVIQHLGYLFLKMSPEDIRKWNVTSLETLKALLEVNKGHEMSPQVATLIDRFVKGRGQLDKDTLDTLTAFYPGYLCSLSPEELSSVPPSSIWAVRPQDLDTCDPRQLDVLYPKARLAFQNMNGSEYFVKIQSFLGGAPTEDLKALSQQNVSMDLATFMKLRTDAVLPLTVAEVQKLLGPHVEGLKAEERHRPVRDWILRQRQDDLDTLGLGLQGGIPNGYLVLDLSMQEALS
# [4] = target: monkey MSLN full-length protein on HEK293T cells (monkey); assay: FACS, HEK293T-monkey-MSLN cells, antibody 0.032 nM
# [5] = target: human MSLN full-length protein on transfected cells (CHO-K1-hMSLN clones 2C8, 2D11, 2C5; HEK293T-hMSLN clones B8, 2A4, 2A7) (human) (UniProt Q13421); assay: FACS, CHO-K1-hMSLN-2C8 cells, antibody 0.00128 nM
# Sequence of human MSLN full-length protein on transfected cells (CHO-K1-hMSLN clones 2C8, 2D11, 2C5; HEK293T-hMSLN clones B8, 2A4, 2A7) (human) (Q13421 other isoform, or with tags, fused parts or gaps limits assumed): as the sequence (Q13421 other isoform, or with tags, fused parts or gaps) above, with R14P counted along it
# [6] = target: human MSLN full-length protein, recombinant, on CHO-K1 or HEK293T cells (human) (UniProt Q13421); assay: competitive FACS on CHO-K1-human MSLN-2C8 cells vs Biotin-Tab131; competitor at 1.6 nM
# [7] = target: monkey MSLN full-length protein on HEK293T cells (monkey); assay: FACS, HEK293T-monkey-MSLN cells, antibody 0.16 nM
# [8] = target: human MSLN full-length protein, recombinant, on CHO-K1 or HEK293T cells (human) (UniProt Q13421); assay: FACS, CHO-K1-hMSLN-2C8 cells
# Sequence of human MSLN full-length protein, recombinant, on CHO-K1 or HEK293T cells (human) (Q13421 other isoform, or with tags, fused parts or gaps limits assumed): as the sequence (Q13421 other isoform, or with tags, fused parts or gaps) above, with R14P counted along it
substance,measurement,setting,value
hIgG1 (antibody),MFI of Biotin-Tab142,[1],23000
same,MFI of Biotin-Tab131,[2],12500
same,FACS signal (MFI),[3],76
same,FACS signal (MFI),[4],125
same,FACS signal (MFI),[5],116
same,MFI of Biotin-Tab131,[6],12600
same,FACS signal (MFI),[7],85
same,Max MFI,[8],80

# Reference: patent US20240124563A1
